From the supplement of paper PMC5998384

Assays:
HeLa Kyoto [1] = assay: solubility in G1/S (NP-40 vs SDS abundance) (log2 ratio); higher = more soluble; conditions: cell cycle stage: G1/S
HeLa Kyoto [2] = assay: solubility change mitosis vs G1/S (difference of NP-40 vs SDS log2 ratios) (log2 ratio difference); higher = more soluble in mitosis
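Throughout, for solubility change mitosis vs G1/S (difference of NP-40 vs SDS log2 ratios): synchronized HeLa Kyoto cells (double thymidine block for G1/S, nocodazole release for mitosis), protein amounts in NP-40 versus SDS lysates quantified by mass spectrometry, three biological replicates.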
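Throughout, for solubility in G1/S (NP-40 vs SDS abundance): HeLa Kyoto cells arrested at G1/S by double thymidine block, proteins quantified by TMT10plex mass spectrometry in mild NP-40 versus SDS extracts, three biological replicates.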

| Substance | solubility in G1/S (log2) (HeLa Kyoto [1]) | solubility change mitosis (log2) (HeLa Kyoto [2]) |
| --- | --- | --- |
| MVAMAEAEAGVAVEVRGLPPAVPDELLTLYFENRRRSGGGPVLSWQRLGCGGVLTFREPADAERVLAQADHELHGAQLSLRPAPPRAPARLLLQGLPPGTTPQRLEQHVQALLRASGLPVQPCCALASPRPDRALVQLPKPLSEADVRVLEEQAQNLGLEGTLVSLARVPQARAVRVVGDGASVDLLLLELYLENERRSGGGPLEDLQRLPGPLGTVASFQQWQVAERVLQQEHRLQGSELSLVPHYDILEPEELAENTSGGDHPSTQGPRATKHALLRTGGLVTALQGAGTVTMGSGEEPGQSGASLRTGPMVQGRGIMTTGSGQEPGQSGTSLRTGPMGSLGQAEQVSSMPMGSLEHEGLVSLRPVGLQEQEGPMSLGPVGSAGPVETSKGLLGQEGLVEIAMDSPEQEGLVGPMEITMGSLEKAGPVSPGCVKLAGQEGLVEMVLLMEPGAMRFLQLYHEDLLAGLGDVALLPLEGPDMTGFRLCGAQASCQAAEEFLRSLLGSISCHVLCLEHPGSARFLLGPEGQHLLQGLEAQFQCVFGTERLATATLDTGLEEVDPTEALPVLPGNAHTLWTPDSTGGDQEDVSLEEVRELLATLEGLDLDGEDWLPRELEEEGPQEQPEEEVTPGHEEEEPVAPSTVAPRWLEEEAALQLALHRSLEPQGQVAEQEEAAALRQALTLSLLEQPPLEAEEPPDGGTDGKAQLVVHSAFEQDVEELDRALRAALEVHVQEETVGPWRRTLPAELRARLERCHGVSVALRGDCTILRGFGAHPARAARHLVALLAGPWDQSLAFPLAASGPTLAGQTLKGPWNNLERLAENTGEFQEVVRAFYDTLDAARSSIRVVRVERVSHPLLQQQYELYRERLLQRCERRPVEQVLYHGTTAPAVPDICAHGFNRSFCGRNATVYGKGVYFARRASLSVQDRYSPPNADGHKAVFVARVLTGDYGQGRRGLRAPPLRGPGHVLLRYDSAVDCICQPSIFVIFHDTQALPTHLITCEHVPRASPDDPSGLPGRSPDT [PARP10] | 0.14 | 0.0134 |
| MKLLSLVAVVGCLLVPPAEANKSSEDIRCKCICPPYRNISGHIYNQNVSQKDCNCLHVVEPMPVPGHDVEAYCLLCECRYEERSTTTIKVIIVIYLSVVGALLLYMAFLMLVDPLIRKPDAYTEQLHNEEENEDARSMAAAAASLGGPRANTVLERVEGAQQRWKLQVQEQRKTVFDRHKMLS [TMEM9] | 0.254 | 0.292 |
| MGSELIGRLAPRLGLAEPDMLRKAEEYLRLSRVKCVGLSARTTETSSAVMCLDLAASWMKCPLDRAYLIKLSGLNKETYQSCLKSFECLLGLNSNIGIRDLAVQFSCIEAVNMASKILKSYESSLPQTQQVDLDLSRPLFTSAALLSACKILKLKVDKNKMVATSGVKKAIFDRLCKQLEKIGQQVDREPGDVATPPRKRKKIVVEAPAKEMEKVEEMPHKPQKDEDLTQDYEEWKRKILENAASAQKATAE [ORC6] | 0.47 | -0.389 |
| MLGQQQQQLYSSAALLTGERSRLLTCYVQDYLECVESLPHDMQRNVSVLRELDNKYQETLKEIDDVYEKYKKEDDLNQKKRLQQLLQRALINSQELGDEKIQIVTQMLELVENRARQMELHSQCFQDPAESERASDKAKMDSSQPERSSRRPRRQRTSESRDLCHMANGIEDCDDQPPKEKKSKSAKKKKRSKAKQEREASPVEFAIDPNEPTYCLCNQVSYGEMIGCDNEQCPIEWFHFSCVSLTYKPKGKWYCPKCRGDNEKTMDKSTEKTKKDRRSR [ING2] | -0.404 | 0.625 |
| MALEQALQAARQGELDVLRSLHAAGLLGPSLRDPLDALPVHHAARAGKLHCLRFLVEEAALPAAARARNGATPAHDASATGHLACLQWLLSQGGCRVQDKDNSGATVLHLAARFGHPEVVNWLLHHGGGDPTAATDMGALPIHYAAAKGDFPSLRLLVEHYPEGVNAQTKNGATPLYLACQEGHLEVTQYLVQECGADPHARAHDGMTPLHAAAQMGHSPVIVWLVSCTDVSLSEQDKDGATAMHFAASRGHTKVLSWLLLHGGEISADLWGGTPLHDAAENGELECCQILVVNGAELDVRDRDGYTAADLSDFNGHSHCTRYLRTVENLSVEHRVLSRDPSAELEAKQPDSGMSSPNTTVSVQPLNFDLSSPTSTLSNYDSCSSSHSSIKGQHPPCGLSSARAADIQSYMDMLNPELGLPRGTIGKPTPPPPPPSFPPPPPPPGTQLPPPPPGYPAPKPPVGPQAADIYMQTKNKLRHVETEALKKELSSCDGHDGLRRQDSSRKPRAFSKQPSTGDYYRQLGRCPGETLAARPGMAHSEEVRARQPARAGCPRLGPAARGSLEGPSAPPQAALLPGNHVPNGCAADPKASRELPPPPPPPPPPLPEAASSPPPAPPLPLESAGPGCGQRRSSSSTGSTKSFNMMSPTGDNSELLAEIKAGKSLKPTPQSKGLTTVFSGIGQPAFQPDSPLPSVSPALSPVRSPTPPAAGFQPLLNGSLVPVPPTTPAPGVQLDVEALIPTHDEQGRPIPEWKRQVMVRKMQLKMQEEEEQRRKEEEEEARLASMPAWRRDLLRKKLEEEREQKRKEEERQKQEELRREKEQSEKLRTLGYDESKLAPWQRQVILKKGDIAKY [ESPN] | -0.041 | -0.0492 |
| MAKGRVAERSQLGAHHTTPVGDGAAGTRGLAAPGSRDHQKEKSWVEAGSARMSLLILVSIFLSAAFVMFLVYKNFPQLSEEERVNMKVPRDMDDAKALGKVLSKYKDTFYVQVLVAYFATYIFLQTFAIPGSIFLSILSGFLYPFPLALFLVCLCSGLGASFCYMLSYLVGRPVVYKYLTEKAVKWSQQVERHREHLINYIIFLRITPFLPNWFINITSPVINVPLKVFFIGTFLGVAPPSFVAIKAGTTLYQLTTAGEAVSWNSIFILMILAVLSILPAIFQKKLKQKFE [TMEM41B] | -0.0617 | 0.0116 |
| MGTFCSVIKFENLQELKRLCHWGPIIALGVIAICSTMAMIDSVLWYWPLHTTGGSVNFIMLINWTVMILYNYFNAMFVGPGFVPLGWKPEISQDTMYLQYCKVCQAYKAPRSHHCRKCNRCVMKMDHHCPWINNCCGYQNHASFTLFLLLAPLGCIHAAFIFVMTMYTQLYHRLSFGWNTVKIDMSAARRDPLPIVPFGLAAFATTLFALGLALGTTIAVGMLFFIQMKIILRNKTSIESWIEEKAKDRIQYYQLDEVFVFPYDMGSRWRNFKQVFTWSGVPEGDGLEWPVREGCHQYSLTIEQLKQKADKRVRSVRYKVIEDYSGACCPLNKGIKTFFTSPCTEEPRIQLQKGEFILATRGLRYWLYGDKILDDSFIEGVSRIRGWFPRKCVEKCPCDAETDQAPEGEKKNR [ZDHHC6] | -0.0586 | -0.272 |
| MPGEEEERAFLVAREELASALRRDSGQAFSLEQLRPLLASSLPLAARYLQLDAARLVRCNAHGEPRNYLNTLSTALNILEKYGRNLLSPQRPRYWRGVKFNNPVFRSTVDAVQGGRDVLRLYGYTEEQPDGLSFPEGQEEPDEHQVATVTLEVLLLRTELSLLLQNTHPRQQALEQLLEDKVEDDMLQLSEFDPLLREIAPGPLTTPSVPGSTPGPCFLCGSAPGTLHCPSCKQALCPACDHLFHGHPSRAHHLRQTLPGVLQGTHLSPSLPASAQPRPQSTSLLALGDSSLSSPNPASAHLPWHCAACAMLNEPWAVLCVACDRPRGCKGLGLGTEGPQGTGGLEPDLARGRWACQSCTFENEAAAVLCSICERPRLAQPPSLVVDSRDAGICLQPLQQGDALLASAQSQVWYCIHCTFCNSSPGWVCVMCNRTSSPIPAQHAPRPYASSLEKGPPKPGPPRRLSAPLPSSCGDPEKQRQDKMREEGLQLVSMIREGEAAGACPEEIFSALQYSGTEVPLQWLRSELPYVLEMVAELAGQQDPGLGAFSCQEARRAWLDRHGNLDEAVEECVRTRRRKVQELQSLGFGPEEGSLQALFQHGGDVSRALTELQRQRLEPFRQRLWDSGPEPTPSWDGPDKQSLVRRLLAVYALPSWGRAELALSLLQETPRNYELGDVVEAVRHSQDRAFLRRLLAQECAVCGWALPHNRMQALTSCECTICPDCFRQHFTIALKEKHITDMVCPACGRPDLTDDTQLLSYFSTLDIQLRESLEPDAYALFHKKLTEGVLMRDPKFLWCAQCSFGFIYEREQLEATCPQCHQTFCVRCKRQWEEQHRGRSCEDFQNWKRMNDPEYQAQGLAMYLQENGIDCPKCKFSYALARGGCMHFHCTQCRHQFCSGCYNAFYAKNKCPEPNCRVKKSLHGHHPRDCLFYLRDWTALRLQKLLQDNNVMFNTEPPAGARAVPGGGCRVIEQKEVPNGLRDEACGKETPAGYAGLCQAHYKEYLVSLINAHSLDPATLYEVEELETATERYLHVRPQPLAGEDPPAYQARLLQKLTEEVPLGQSIPRRRK [RNF31] | -0.0767 | -0.0502 |
| MSVDPMTYEAQFFGFTPQTCMLRIYIAFQDYLFEVMQAVEQVILKKLDGIPDCDISPVQIRKCTEKFLCFMKGHFDNLFSKMEQLFLQLILRIPSNILLPEDKCKETPYSEEDFQHLQKEIEQLQEKYKTELCTKQALLAELEEQKIVQAKLKQTLTFFDELHNVGRDHGTSDFRESLVSLVQNSRKLQNIRDNVEKESKRLKIS [MIS12] | -0.177 | 0.259 |
| MGA | -0.38 | 0.233 |
| MSYMLPHLHNGWQVDQAILSEEDRVVVIRFGHDWDPTCMKMDEVLYSIAEKVKNFAVIYLVDITEVPDFNKMYELYDPCTVMFFFRNKHIMIDLGTGNNNKINWAMEDKQEMVDIIETVYRGARKGRGLVVSPKDYSTKYRY [TXNL4A] | -0.625 | 0.224 |
| MPGRAEAGEAEEEAGAGSGSEAEEDALWERIEGVRHRLARALNPAKLTPYLRQCRVIDEQDEEEVLSTYRFPCRVNRTGRLMDILRCRGKRGYEAFLEALEFYYPEHFTLLTGQEPAQRCSMILDEEGPEGLTQFLMTEVRRLREARKSQLQREQQLQARGRVLEEERAGLEQRLRDQQQAQERCQRLREDWEAGSLELLRLKDENYMIAMRLAQLSEEKNSAVLRSRDLQLAVDQLKLKVSRLEEECALLRRARGPPPGAEEKEKEKEKEKEPDNVDLVSELRAENQRLTASLRELQEGLQQEASRPGAPGSERILLDILEHDWREAQDSRQELCQKLHAVQGELQWAEELRDQYLQEMEDLRLKHRTLQKDCDLYKHRMATVLAQLEEIEKERDQAIQSRDRIQLQYSQSLIEKDQYRKQVRGLEAERDELLTTLTSLEGTKALLEVQLQRAQGGTCLKACASSHSLCSNLSSTWSLSEFPSPLGGPEATGEAAVMGGPEPHNSEEATDSEKEINRLSILPFPPSAGSILRRQREEDPAPPKRSFSSMSDITGSVTLKPWSPGLSSSSSSDSVWPLGKPEGLLARGCGLDFLNRSLAIRVSGRSPPGGPEPQDKGPDGLSFYGDRWSGAVVRRVLSGPGSARMEPREQRVEAAGLEGACLEAEAQQRTLLWNQGSTLPSLMDSKACQSFHEALEAWAKGPGAEPFYIRANLTLPERADPHALCVKAQEILRLVDSAYKRRQEWFCTRVDPLTLRDLDRGTVPNYQRAQQLLEVQEKCLPSSRHRGPRSNLKKRALDQLRLVRPKPVGAPAGDSPDQLLLEPCAEPERSLRPYSLVRPLLVSALRPVVLLPECLAPRLIRNLLDLPSSRLDFQVCPAESLSGEELCPSSAPGAPKAQPATPGLGSRIRAIQESVGKKHCLLELGARGVRELVQNEIYPIVIHVEVTEKNVREVRGLLGRPGWRDSELLRQCRGSEQVLWGLPCSWVQVPAHEWGHAEELAKVVRGRILQEQARLVWVECGSSRGCPSSSEA [CARD10] | -0.0585 | 0.0575 |
